Experimental findings from patent publication US20140221623A1 (Ablynx, published 2014) are described below.

T1: Human soluble IL6-R (human, UniProt P08887 20-358)
T1 construct: Bought soluble receptor; biotinylated in some Alphascreen assays; also called sIL6-R; hIL-6R
T1 sequence (looked up): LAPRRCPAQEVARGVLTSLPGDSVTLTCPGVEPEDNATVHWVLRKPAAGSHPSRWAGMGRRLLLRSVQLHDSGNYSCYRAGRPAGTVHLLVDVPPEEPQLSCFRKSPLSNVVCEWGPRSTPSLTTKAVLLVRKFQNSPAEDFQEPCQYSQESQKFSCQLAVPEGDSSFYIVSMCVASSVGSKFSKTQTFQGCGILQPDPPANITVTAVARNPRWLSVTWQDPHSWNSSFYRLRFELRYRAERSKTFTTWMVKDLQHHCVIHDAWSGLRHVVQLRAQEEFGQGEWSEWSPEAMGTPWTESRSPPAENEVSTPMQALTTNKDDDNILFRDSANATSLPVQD

B1: PMP 28 A2 (VHH)
VHH: EVQLVESGGGLVQPGGSLRLSCAASGFTFGSYDMSWVRQAPGKGPEWVSAINSGGGSTYYADSVKGRFTISRDNAKNTLYLQMNSLKPEDTAVYYCATDWRYSDYDLPLPPPGDYWGQGTQVTVSS
notes: also called PMP28A2(t)
B2: PMP 33 C10 (VHH)
VHH: EVQLVESGGGLVQPGGSLRLSCAASGFTFDDYGMSWVRQAPGKGLEWVSAISWNGGSTYYTESMKGRFTISRDNAKNTVYLQMNSLKPEDTAVYYCVKGSTAIVGVPPTYPDEYDYWGQGTQVTVSS
notes: also called PMP33C10(t)
B3: PMP 30 A10 (VHH)
VHH: EVQLVESGGGLVQPGGSLRLSCAASGFTFDDYGMSWVRQAPGKGLEWVSAISWNGGSTYYTESMKGRFTISRDNAKNTVYLQMNSLKPEDTAVYYCVKGSTAIVGVPPTYPDEYDYWGQGTQVTVSS
notes: also called PMP30A10(t)
B4: PMP 31 D2 (VHH)
VHH: EVQLVESGGGLVQAGGSLRLSCAASGFTFDDYAIGWFRQAPGKEREGVSGISSSDGNTYYADSVKGRFTISSDNAKNTVYLQMNSLKPEDTAVYYCAAEPPDSNWYLDGSPEFFKFWGQGTQVTVSS
notes: also called PMP31D2(t)
B5: PMP 31 C5 (VHH)
VHH: EVQLVESGGGLVQAGGSLRLSCAASGFTFDDYAIGWFRQAPGKEREGVSCISSSDGSTYYADSVKGRFTISSDNAKNTVYLLMNSLKPEDTAVYYCAAEPPDSMWSLDGSPEFFKFWGQGTQVTVSS
notes: also called PMP31C5(t)
B6: PMP 32 F10 (VHH)
VHH: EVQLVESGGGLVQAGGSLRLSCAASGFTFDDYAIGWFRQAPGKEREGISCISSSDGSTYYADSVKGRFTISSDNAKNTVYLQMNSLKPEDTAVYYCAAEPPDSSWILDGSPEFFKFWGQGTQVTVSS
notes: also called PMP32F10(t)
B7: PMP 33 A2 (VHH)
VHH: EVQLVESGGGLVQPGGSLRLSCAASGFSLDYYAIGWFRQAPGKEREGVSCMDSSGGTTSTYYSDSVKGRFTISRDDAKNTVYLQMNSLKPEDTAVYYCAADGHLNWGQRYVPCSQISWRGWNDYWGQGTQVTVSS
notes: also called PMP33A2(t)
B8: PMP 34 F8 (VHH)
VHH: EVQLVESGGGLVQPGGSLRLSCAASGFSLDYYAIGWFRQAPGKEREGVSCMDSSDGTTNTYYSDSVKGRFTISRDDAKNTVYLQMNSLKPEDTASYYCAADGHLNWGQPYVPCSQISWRGWNDYWGQGTQVTVSS
notes: also called PMP34F8(t)
B9: IL6R81 (VHH)
VHH: EVQLVESGGGLVQPGGSLRLSCAASGFTFDDYGMSWVRQAPGRATEWVSAISWNGNNTYYTESMKGRFTISRDNAKNTVYLQMNSLRPEDTAVYYCVKGSTAIVGVPPTYPDEYDYWGQGTLVTVSS
notes: Humanized variant of IL6R13
B10: IL6R87 (VHH)
VHH: EVQLVESGGGLVQPGGSLRLSCAASGFTFDDYGMSWVRQAPGKATEWVSAISWNGNNTYYTESMKGRFTISRDNAKNTLYLQMNSLRPEDTAVYYCVKGSTAIVGVPPTYPDEYDYWGQGTLVTVSS
notes: Humanized variant of IL6R13
B11: IL6R83 (VHH)
VHH: EVQLVESGGGLVQPGGSLRLSCAASGFTFDDYGMSWVRQAPGRATEWVSAISWNGNNTYYTESMKGRFTISRDNAKNTLYLQMNSLRPEDTAVYYCVKGSTAIVGVPPTYPDEYDYWGQGTLVTVSS
notes: Humanized variant of IL6R13
B12: IL6R84 (VHH)
VHH: EVQLVESGGGLVQPGGSLRLSCAASGFTFDDYGMSWVRQAPGKGLEWVSAISWNGNNTYYTESMKGRFTISRDNAKNTLYLQMNSLRPEDTAVYYCVKGSTAIVGVPPTYPDEYDYWGQGTLVTVSS
notes: Humanized variant of IL6R13
B13: IL6R86 (VHH)
VHH: EVQLVESGGGLVQPGGSLRLSCAASGFTFDDYGMSWVRQAPGRALEWVSAISWNGNNTYYTESMKGRFTISRDNAKNTLYLQMNSLRPEDTAVYYCVKGSTAIVGVPPTYPDEYDYWGQGTLVTVSS
notes: Humanized variant of IL6R13
B14: IL6R90 (VHH)
VHH: EVQLVESGGGLVQPGGSLRLSCAASGFTFDDYGMSWVRQAPGKALEWVSAISWNGNNTYYTESMKGRFTISRDNAKNTLYLQMNSLRPEDTAVYYCVKGSTAIVGVPPTYPDEYDYWGQGTLVTVSS
notes: Humanized variant of IL6R13
B15: IL6R89 (VHH)
VHH: EVQLVESGGGLVQPGGSLRLSCAASGFTFDDYGMSWVRQAPGRGTEWVSAISWNGNNTYYTESMKGRFTISRDNAKNTLYLQMNSLRPEDTAVYYCVKGSTAIVGVPPTYPDEYDYWGQGTLVTVSS
notes: Humanized variant of IL6R13
B16: IL6R85 (VHH)
VHH: EVQLVESGGGLVQPGGSLRLSCAASGFTFDDYGMSWVRQAPGRGLEWVSAISWNGNNTYYTESMKGRFTISRDNAKNTLYLQMNSLRPEDTAVYYCVKGSTAIVGVPPTYPDEYDYWGQGTLVTVSS
notes: Humanized variant of IL6R13
B17: IL6R82 (VHH)
VHH: EVQLVESGGGLVQPGGSLRLSCAASGFTFDDYGMSWVRQAPGKGLEWVSAISWNGNNTYYTESMKGRFTISRDNAKNTVYLQMNSLRPEDTAVYYCVKGSTAIVGVPPTYPDEYDYWGQGTLVTVSS
notes: Humanized variant of IL6R13
B18: IL6R61 (VHH)
VHH: EVQLVESGGGLVQPGGSLRLSCAASGSIFKVNAMGWYRQAPGKGRELVAGIISGGSTNYADSVKGRLTISRDNAKNTVYLQMNSLRPEDTAVYYCSFVTTNSDYDLGRDYWGQGTLVTVSS
notes: Humanized variant of IL6R03
B19: IL6R65 (VHH)
VHH: EVQLVESGGGLVQPGGSLRLSCAASGSIFKVNAMGWYRQAPGKGRELVAGIISGGSTNYADSVKGRFTISRDNAKNTLYLQMNSLRPEDTAVYYCAFVTTNSDYDLGRDYWGQGTLVTVSS
notes: Humanized variant of IL6R03
B20: IL6R64 (VHH)
VHH: EVQLVESGGGLVQPGGSLRLSCAASGSIFKVNAMGWYRQAPGKGRELVAGIISGGSTNYADSVKGRLTISRDNAKNTVYLQMNSLRPEDTAVYYCAFVTTNSDYDLGRDYWGQGTLVTVSS
notes: Humanized variant of IL6R03
B21: IL6R62 (VHH)
VHH: EVQLVESGGGLVQPGGSLRLSCAASGSIFKVNAMGWYRQAPGKGRELVAGIISGGSTNYADSVKGRFTISRDNAKNTVYLQMNSLRPEDTAVYYCSFVTTNSDYDLGRDYWGQGTLVTVSS
notes: Humanized variant of IL6R03
B22: IL6R63 (VHH)
VHH: EVQLVESGGGLVQPGGSLRLSCAASGSIFKVNAMGWYRQAPGKGRELVAGIISGGSTNYADSVKGRLTISRDNAKNTLYLQMNSLRPEDTAVYYCSFVTTNSDYDLGRDYWGQGTLVTVSS
notes: Humanized variant of IL6R03
B23: IL6R71 (VHH)
VHH: EVQLVESGGGLVQPGGSLRLSCAASGFTFDDYDIGWFRQAPGKGREGVSGISSSDGNTYYADSVKGRFTISSDNAKNTVYLQMNSLRPEDTAVYYCAAEPPDSSWYLDGSPEFFKYWGQGTLVTVSS
notes: Humanized variant of IL6R04
B24: IL6R74 (VHH)
VHH: EVQLVESGGGLVQPGGSLRLSCAASGFTFDDYDIGWFRQAPGKGREGVSGISSSDGNTYYADSVKGRFTISSDNAKNTLYLQMNSLRPEDTAVYYCAAEPPDSSWYLDGSPEFFKYWGQGTLVTVSS
notes: Humanized variant of IL6R04
B25: IL6R72 (VHH)
VHH: EVQLVESGGGLVQPGGSLRLSCAASGFTFSDYDIGWFRQAPGKGREGVSGISSSDGNTYYADSVKGRFTISSDNAKNTVYLQMNSLRPEDTAVYYCAAEPPDSSWYLDGSPEFFKYWGQGTLVTVSS
notes: Humanized variant of IL6R04
B26: IL6R75 (VHH)
VHH: EVQLVESGGGLVQPGGSLRLSCAASGFTFSDYDIGWFRQAPGKGREGVSGISSSDGNTYYADSVKGRFTISRDNAKNTLYLQMNSLRPEDTAVYYCAAEPPDSSWYLDGSPEFFKYWGQGTLVTVSS
notes: Humanized variant of IL6R04
B27: IL6R73 (VHH)
VHH: EVQLVESGGGLVQPGGSLRLSCAASGFTFDDYDIGWFRQAPGKGREGVSGISSSDGNTYYADSVKGRFTISRDNAKNTVYLQMNSLRPEDTAVYYCAAEPPDSSWYLDGSPEFFKYWGQGTLVTVSS
notes: Humanized variant of IL6R04

Where only a bound is given, the exact number is not on record here.

For one assay, the target named is T1, Human soluble IL6-R. Briefly: SPR (Biacore), off-rate. In general terms: SPR reads the build-up and loss of mass on a sensor chip optically.
As a reminder, the koff is a measure of how fast the partners let go of each other. Lower therefore signals a long-lived complex. B1 yielded a koff of 0.00124 s⁻¹.

B2 gave a koff of 0.00308 s⁻¹.

The molecule B3 returned a koff of 0.00268 s⁻¹.

In the case of B4, the koff was 0.000281 s⁻¹.

The molecule B5 returned a koff of 0.000111 s⁻¹.

Regarding B6, the koff came out at 0.00058 s⁻¹.

Regarding B7, the koff was found to be 0.0005 s⁻¹.

Molecule B8 registered a koff of 0.000142 s⁻¹.

For a further assay, the target named is T1, Human soluble IL6-R. Briefly: SPR (Biacore 3000), IL6-R on CM5 chip.
Broadly, the Kd is the concentration at which binding is half-saturated. Lower therefore signals higher affinity. As usually defined, the kon is a measure of how fast the partners come together. Low readings indicate slower complex formation, high ones faster complex formation. B9 registered a Kd of 0.4 nM, a koff of 0.000128 s⁻¹ and a kon of 320000 M⁻¹ s⁻¹.

The molecule B10 displayed a koff of 0.000105 s⁻¹.

For B11, the Kd was found to be 0.34 nM, the koff was 0.00012 s⁻¹ and the kon stood at 350000 M⁻¹ s⁻¹.

As to B12, the Kd is 5.36 nM, the koff came out at 0.00409 s⁻¹ and the kon was determined as 762000 M⁻¹ s⁻¹.

B13: the koff amounted to 0.0017 s⁻¹.

The molecule B14 had a koff of 0.00192 s⁻¹.

B15 gave a koff of 0.00019 s⁻¹.

Turning to B16, the koff stood at 0.00206 s⁻¹.

Molecule B17 had a Kd of 5.07 nM, a koff of 0.00314 s⁻¹ and an on-rate (kon) of 619000 M⁻¹ s⁻¹.

Turning to B18, the affinity, expressed as Kd, was 2 nM; the koff turned out to be 0.0017 s⁻¹; the kon came out at 850000 M⁻¹ s⁻¹.

B19: the Kd was determined as 4 nM, the koff was 0.00235 s⁻¹ and the kon worked out at 600000 M⁻¹ s⁻¹.

B20 yielded a koff of 0.001 s⁻¹.

B21: the Kd stood at 2.22 nM, the koff was 0.00207 s⁻¹ and the kon was 929000 M⁻¹ s⁻¹.

Turning to B22, the Kd came to 3.69 nM, the koff amounted to 0.00365 s⁻¹ and the kon was found to be 990000 M⁻¹ s⁻¹.

On to B23, for which the affinity, expressed as Kd, was 0.22 nM; the koff was determined as 0.000153 s⁻¹; the kon was found to be 703000 M⁻¹ s⁻¹.

In the case of B24, the Kd came to 0.16 nM, the dissociation rate constant (koff) was 0.000122 s⁻¹ and the kon came out at 767000 M⁻¹ s⁻¹.

With B25, the Kd was 0.33 nM, the koff is 0.00018 s⁻¹ and the kon turned out to be 543000 M⁻¹ s⁻¹.

The molecule B26 displayed a Kd below 0.1 nM, a koff below 0.0001 s⁻¹ and a kon of 1e+06 M⁻¹ s⁻¹.

In turn, B27 displayed a Kd of 0.33 nM, a koff of 0.000233 s⁻¹ and a kon of 698000 M⁻¹ s⁻¹.
